T1: rhesus CD137Fc recombinant protein (Sino Biologicals cat no. 90847-K02H) (rhesus; human, UniProt H9Z8K9 24-186)
T1 construct: Bought protein; also called rhesus CD137-human IgG1 Fc tagged protein; not shown: human IgG1 Fc tag
T1 sequence: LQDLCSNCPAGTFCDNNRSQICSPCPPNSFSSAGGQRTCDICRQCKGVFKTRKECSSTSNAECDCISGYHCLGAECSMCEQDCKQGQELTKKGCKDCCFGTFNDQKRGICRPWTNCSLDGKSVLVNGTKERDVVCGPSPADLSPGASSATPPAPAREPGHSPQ

T2: mouse CD137Fc protein (Acro Biosystems 41B-M5258) (mouse, UniProt P20334 24-187)
T2 construct: Bought protein; also called mouse CD137 protein; not shown: Fc tag, detected with anti human-Fc
T2 sequence (looked up): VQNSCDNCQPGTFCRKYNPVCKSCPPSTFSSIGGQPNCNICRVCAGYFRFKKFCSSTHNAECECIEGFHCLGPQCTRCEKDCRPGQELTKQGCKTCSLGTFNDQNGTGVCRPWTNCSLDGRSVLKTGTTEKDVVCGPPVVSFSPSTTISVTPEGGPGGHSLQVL


Legend:
[1] = molecular target: T3, human CD137-human Fc chimeric protein (Acro Biosystems cat no. 41B-H5258) (human, UniProt Q07011 24-186); experiment: HTRF binding assay
T3 construct: Bought protein; The Octet Protein G and Biacore experiments name no catalogue number; also called human CD137Fc recombinant protein; human CD137-Fc recombinant protein; not shown: human IgG1 Fc tag
Procedure: (§1) Binding to human CD137Fc recombinant protein (Acro Biosystems 41B-H5258), rhesus CD137Fc recombinant protein (Sino Biologicals cat no. 90847-K02H) and mouse CD137Fc protein (Acro Biosystems 41B-M5258) was measured using an HTRF Binding assay format. All reagents and serially diluted VH were prepared in assay buffer containing PBS, 0.1% BSA and 0.4M Potassium Fluoride. Samples or assay buffer (non-specific binding) were incubated with 0.5 nM human, rhesus or mouse CD137, 1 nM Anti human-Fc Cryptate PAb (Cisbio cat. no. 61HFCKLB) and 20 nM anti His-D2 (CisBio cat no 61HISDLA) in black 384-shallow well assay plates for a minimum of 3 hours at room temperature. Time-resolved fluorescent emission at 620 nm and 665 nm was measured following excitation at 337 nm on the BMG PHERAstar plate reader. The HTRF ratio were calculated ((665 nm emission/620 nm emission)*10000) and the data corrected for (non-specific binding) to give the specific binding signal. VH bound to human and rhesus CD137 but not to mouse CD137 protein.

[2] = molecular target: T1, rhesus CD137Fc recombinant protein …; experiment: HTRF binding assay
Procedure: as §1

[3] = molecular target: T2, mouse CD137Fc protein (Acro Biosystems …); experiment: HTRF binding assay
Procedure: as §1

[4] = molecular target: T4, human CD137 expressed on the surface of CHO cells (human, UniProt Q07011 24-255); experiment: FMAT, CHO human CD137 cells
T4 construct: Also used for the Jurkat reporter cells that express human CD137 (functional rows); also called CHO human CD137 cells; CHO huCD137
Procedure, shortened: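 FMAT binding read-out: gated on DRAQ5 (FL5) signal, with the FL2 median intensity taken as VH binding. Cells (2000/well, DRAQ5-prestained) were incubated with diluted His-tagged molecules, 1.5 nM anti-His and Alexa Fluor-488 secondary for ≥2 h at room temperature in pH 7.4 PBS buffer containing BSA and azide.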

[5] = molecular target: T4, human CD137 expressed on the surface of …; experiment: FMAT ligand inhibition, CD137 Ligand on CHO human CD137 cells
Procedure, shortened: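 Read-out was FMAT fluorescence (FL2 median intensity), normalised to total binding controls after subtracting non-specific binding set with excess non-Fc-tagged competitor. Inhibition by purified Humabody VH of human CD137 ligand binding to CHO human CD137 cells was reported as % control.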

[6] = molecular target: T5, CD137 on pre-stimulated human CD8+ T cells (human, UniProt Q07011 24-255); experiment: flow cytometry, PMA/ionomycin-stimulated human CD8+ T cells, mean of 2-3 donors
T5 construct: also called pre-stimulated CD8+ cells; primary T cells
Procedure, shortened: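 PMA/ionomycin-activated (48-72 h) CD8+ T cells purified from PBMC by negative selection were incubated with serially diluted His-tagged VH for 30 mins-1 hour at 4° C. Bound VH was detected via anti-His plus Alexa Fluor-488 secondary, with live/dead near-IR gating, and read by flow cytometry after fixation.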

T4 sequence (Q07011 24-255 limits assumed): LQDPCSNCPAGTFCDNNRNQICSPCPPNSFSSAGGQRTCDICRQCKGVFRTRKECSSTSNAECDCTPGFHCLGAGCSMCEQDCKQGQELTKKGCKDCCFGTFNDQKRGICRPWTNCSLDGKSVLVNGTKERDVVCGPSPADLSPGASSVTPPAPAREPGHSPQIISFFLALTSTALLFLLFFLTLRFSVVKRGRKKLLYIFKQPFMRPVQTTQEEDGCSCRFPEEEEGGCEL
T5 sequence (Q07011 24-255 limits assumed): as above

Binder | EC50 [1] | EC50 [2] | binding result [3] | EC50 [4] | IC50 [5] | EC50 [6]
Humabody VH 1.11 (VHH, human single VH domain) VH: EVQLVESGGGLVQPGGSLRLSCEASGFTFSDYWMNWARQAPGKGLEWVANIKEDGSEKYYVDSVEGRFTISRDNAKNSTYLQMNSLRAEDTAVYYCARGGAGYSMSHYGMDVWGQGTTVTVSSHHHHHH | 0.58 nM | 6.8 nM | no binding | 0.27 nM | 1.6 nM | 0.89 nM
Humabody VH 2.1 (VHH, human single VH domain) VH: EVQLVESGGGLVKPGGSLRVSCAASGFTFSDYYMSWFRQAPGKGLEWVSYISGSGDIIDYADSVKGRFTISRDNAKNSLYLQMNNLRAEDTAVYHCAREDSRLTGTTDFDNWGQGTLVTVSSHHHHHH | 3.7 nM | – | no binding | 0.65 nM | 5.7 nM | 2.4 nM
Humabody VH 2.8 (VHH, human single VH domain) VH: EVQLVESGGGLVKPGGSLRLSCAASGFAFSDYYMSWFRQAPGKGLEWVSHISGSGTTIDYADSVKGRFTISRDNAKNSLYLQMNSLRAEDTAVYHCAREDSRMPGTTDFDNWGQGTLVTVSSHHHHHH | 3.1 nM | 1.6 nM | no binding | 0.19 nM | 19 nM | 6.5 nM
Humabody VH 2.14 (VHH, human single VH domain) VH: EVQLVESGGGLVKPGGSLRLSCAASGFTFSDYYMTWFRQAPGKGLEWISYISGSGDTIDYAESVKGRFTISRDNAKNSLYLQMNSLRAEDTAVYYCAREDIRMPGTTDFDHWGQGTLVTVSSHHHHHH | 1.2 nM | 1.3 nM | no binding | 0.31 nM | 2 nM | 0.61 nM

Continued by falling EC50 [1], values first:

EC50 [1] | EC50 [2] | binding result [3] | EC50 [4] | IC50 [5] | EC50 [6] | Binder
1.3 nM | 1.2 nM | no binding | 0.18 nM | 2 nM | 0.6 nM | Humabody VH 2.9 (VHH, human single VH domain) VH: EVQLVESGGGLVKPGGSLRLSCAASGFTFSDYYMTWFRQAPGKGLEWISYISGSGDTIDYAESVKGRFTISRDNAKNSLYLQMNSLRAEDTAVYHCAREDSRIAGTTDFDNWGPGTLVTVSSHHHHHH
0.48 nM | 0.45 nM | no binding | 0.37 nM | 1.2 nM | 0.88 nM | Humabody VH 1.52 (VHH, human single VH domain) VH: EVQLVESGGGLVQIGGSLRLSCAASGFTFSKYWMIWVRQAPEKGLEWVANINQDGSEKYYVDSVEGRFTISRDNANNSLFLQMNSLRAEDTAVYYCARGGDDYSISHFGMDVSGQGTRVTVSSHHHHHH
0.45 nM | 5.1 nM | no binding | 0.31 nM | 1.2 nM | 1.9 nM | Humabody VH 1.18 (VHH, human single VH domain) VH: EVQLVESGGGLVQPGGSLRLSCAASGFTFSTHWMNWARQAPGKELEWVANINQDGSEKYYVDSVEGRFTISRDNANNSLYLQMNSLRAEDTAVYYCARGGVGYGDSHFGMDVWGLGTTVTVSSHHHHHH
0.26 nM | 1.1 nM | no binding | 0.22 nM | 1.1 nM | 0.22 nM | Humabody VH 1.1 (VHH, human single VH domain; also called single domain antibody 1.1) VH: EVQLVESGGGLVQPGGSLRLSCAASGFTFSSHWMTWFRQAPGKGLEWVAHIKEDGSEKYYEDSVEGRFTVSRDNAKNSVYLQMNSLRAEDTAVYYCARGGDGYSDSHFGVDVWGQGTTVTVSSHHHHHH
0.21 nM | 0.14 nM | no binding | 0.32 nM | 1.5 nM | 0.61 nM | Humabody VH 1.78 (VHH, human single VH domain) VH: QVQLVESGGGLVQPGGSLRLSCAATGFTLSNYWMNWVRQAPGKGLEWVANINQDGSERYYVDSVKGRFTISRDNAKNSLYLQMSSLRAEDTAVYFCARGGEGYGVDHYGLDVSGQGTTVTVSSHHHHHH
